Assay [1] deals with T1, modified Tau peptide 3.2f pS214 epitope (Homo sapiens, UniProt P10636, SMILES …).
T1 chain: Ac-SRTP[pS]LP[dV]-{Pyrrolidinyl(2S-CHPh2)}
As to the kind of experiment: ITC.

The target in assay [2] is T2, modified Tau peptide 3.2d pS214 epitope (Homo sapiens, UniProt P10636, phosphoS214, N-acetyl, C-terminal D-Ala-(S)-2-benzhydrylpyrrolidine). As to the kind of experiment: ITC.
Assay [3] addresses T3, modified Tau peptide 4.2d-II pS214 epitope (Homo sapiens, UniProt P10636, also: regioisomer, substituent position not given here).
T3 chain: Ac-SRTP[pS]LPG-{(methoxyethoxy)‑substituted benzhydrylpyrrolidine}
As to the kind of experiment: ITC. In general terms: In ITC the heat of successive injections is recorded.

Assay [4] addresses T4, modified Tau peptide 3.2b pS214 epitope (Homo sapiens, UniProt P10636, phosphoS214, N-acetyl, C-terminal Gly-(S)-2-benzhydrylpyrrolidine). As to the kind of experiment: ITC.
Assay [5] has as its target T5, modified Tau peptide 4.2f-I pS214 epitope (Homo sapiens, UniProt P10636, also: substituent position not given here).
T5 chain: Ac-SRTP[pS]LPG-{methoxy‑substituted benzhydrylpyrrolidine}
As to the kind of experiment: ITC.

For assay [6], the target named is T6, modified Tau peptide 3.2a pS214 epitope (Homo sapiens, UniProt P10636, phosphoS214, N-acetyl, C-terminal L-Thr-(S)-2-benzhydrylpyrrolidine). As to the kind of experiment: ITC.
In assay [7] the target is T7, modified Tau peptide 3.2c pS214 epitope (Homo sapiens, UniProt P10636, phosphoS214, N-acetyl, C-terminal L-Ala-(S)-2-benzhydrylpyrrolidine). As to the kind of experiment: ITC.
The target in assay [8] is T1, modified Tau peptide 3.2f pS214 epitope. As to the kind of experiment: FP competition.
The target in assay [9] is T8, modified Tau peptide 3.2e pS214 epitope (Homo sapiens, UniProt P10636, SMILES …).
T8 chain: Ac-SRTP[pS]LPV-{Pyrrolidinyl(2S-CHPh2)}
As to the kind of experiment: FP competition.

Assay [10] has as its target T2, modified Tau peptide 3.2d pS214 epitope. As to the kind of experiment: FP competition.
Assay [11] addresses T4, modified Tau peptide 3.2b pS214 epitope. As to the kind of experiment: FP competition.
Assay [12] concerns the target T6, modified Tau peptide 3.2a pS214 epitope. As to the kind of experiment: FP competition.
For assay [13], the target named is T7, modified Tau peptide 3.2c pS214 epitope. As to the kind of experiment: FP competition.

Non-standard residues stand in square brackets, D forms with d. *: point of attachment. Pyrrolidinyl(2S-CHPh2) = c1ccc(C(c2ccccc2)[C@@H]2CCCN2*)cc1; pS = N[C@@H](COP(=O)(O)O)C(=O)O

B1: 14-3-3ζ (protein)
chain: MDKNELVQKAKLAEQAERYDDMAACMKSVTEQGAELSNEERNLLSVAYKNVVGARRSSWRVVSSIEQKTEGAEKKQQMAREYREKIETELRDICNDVLSLLEKFLIPNASQAESKVFYLKMKGDYYRYLAEVAAGDDKKGIVDQSQQAYQEAFEISKKEMQPTHPIRLGLALNFSVFYYEILNSPEKACSLAKTAFDEAIAELDTLSEESYKDSTLIMQLLRDNLTLWTSDTQGDEAEAGEGGEN
The Kd is a measure of binding affinity in units of concentration. Lower therefore signals higher affinity. A word on the IC50: it is the concentration at which inhibition is half-maximal. Turning to B1, the equilibrium dissociation constant (Kd) came out at 3.4 µM in [1]; 3 µM in assay [2]; 20.6 µM in assay [3]; 5.6 µM in assay [4]; 4.7 µM in [5]; 5.4 µM in assay [6]. Moreover, the equilibrium dissociation constant (Kd) in [7] is 3.3 µM. For the same molecule, the IC50 was 7.6 µM in assay [8]; 6.2 µM in [9]; 6.2 µM in assay [10]; 5.9 µM in assay [11]; 8.1 µM in assay [12]; 5.3 µM in assay [13].

The values above are taken from PMC6256345 (2018).
